Values quoted from earlier work, collected in PMC6200408.
pKd: −log10 of the molar value.

Biological target: cubilin (Homo sapiens) (UniProt O60494)
Chain of UniProt O60494 (O60494 36-3623): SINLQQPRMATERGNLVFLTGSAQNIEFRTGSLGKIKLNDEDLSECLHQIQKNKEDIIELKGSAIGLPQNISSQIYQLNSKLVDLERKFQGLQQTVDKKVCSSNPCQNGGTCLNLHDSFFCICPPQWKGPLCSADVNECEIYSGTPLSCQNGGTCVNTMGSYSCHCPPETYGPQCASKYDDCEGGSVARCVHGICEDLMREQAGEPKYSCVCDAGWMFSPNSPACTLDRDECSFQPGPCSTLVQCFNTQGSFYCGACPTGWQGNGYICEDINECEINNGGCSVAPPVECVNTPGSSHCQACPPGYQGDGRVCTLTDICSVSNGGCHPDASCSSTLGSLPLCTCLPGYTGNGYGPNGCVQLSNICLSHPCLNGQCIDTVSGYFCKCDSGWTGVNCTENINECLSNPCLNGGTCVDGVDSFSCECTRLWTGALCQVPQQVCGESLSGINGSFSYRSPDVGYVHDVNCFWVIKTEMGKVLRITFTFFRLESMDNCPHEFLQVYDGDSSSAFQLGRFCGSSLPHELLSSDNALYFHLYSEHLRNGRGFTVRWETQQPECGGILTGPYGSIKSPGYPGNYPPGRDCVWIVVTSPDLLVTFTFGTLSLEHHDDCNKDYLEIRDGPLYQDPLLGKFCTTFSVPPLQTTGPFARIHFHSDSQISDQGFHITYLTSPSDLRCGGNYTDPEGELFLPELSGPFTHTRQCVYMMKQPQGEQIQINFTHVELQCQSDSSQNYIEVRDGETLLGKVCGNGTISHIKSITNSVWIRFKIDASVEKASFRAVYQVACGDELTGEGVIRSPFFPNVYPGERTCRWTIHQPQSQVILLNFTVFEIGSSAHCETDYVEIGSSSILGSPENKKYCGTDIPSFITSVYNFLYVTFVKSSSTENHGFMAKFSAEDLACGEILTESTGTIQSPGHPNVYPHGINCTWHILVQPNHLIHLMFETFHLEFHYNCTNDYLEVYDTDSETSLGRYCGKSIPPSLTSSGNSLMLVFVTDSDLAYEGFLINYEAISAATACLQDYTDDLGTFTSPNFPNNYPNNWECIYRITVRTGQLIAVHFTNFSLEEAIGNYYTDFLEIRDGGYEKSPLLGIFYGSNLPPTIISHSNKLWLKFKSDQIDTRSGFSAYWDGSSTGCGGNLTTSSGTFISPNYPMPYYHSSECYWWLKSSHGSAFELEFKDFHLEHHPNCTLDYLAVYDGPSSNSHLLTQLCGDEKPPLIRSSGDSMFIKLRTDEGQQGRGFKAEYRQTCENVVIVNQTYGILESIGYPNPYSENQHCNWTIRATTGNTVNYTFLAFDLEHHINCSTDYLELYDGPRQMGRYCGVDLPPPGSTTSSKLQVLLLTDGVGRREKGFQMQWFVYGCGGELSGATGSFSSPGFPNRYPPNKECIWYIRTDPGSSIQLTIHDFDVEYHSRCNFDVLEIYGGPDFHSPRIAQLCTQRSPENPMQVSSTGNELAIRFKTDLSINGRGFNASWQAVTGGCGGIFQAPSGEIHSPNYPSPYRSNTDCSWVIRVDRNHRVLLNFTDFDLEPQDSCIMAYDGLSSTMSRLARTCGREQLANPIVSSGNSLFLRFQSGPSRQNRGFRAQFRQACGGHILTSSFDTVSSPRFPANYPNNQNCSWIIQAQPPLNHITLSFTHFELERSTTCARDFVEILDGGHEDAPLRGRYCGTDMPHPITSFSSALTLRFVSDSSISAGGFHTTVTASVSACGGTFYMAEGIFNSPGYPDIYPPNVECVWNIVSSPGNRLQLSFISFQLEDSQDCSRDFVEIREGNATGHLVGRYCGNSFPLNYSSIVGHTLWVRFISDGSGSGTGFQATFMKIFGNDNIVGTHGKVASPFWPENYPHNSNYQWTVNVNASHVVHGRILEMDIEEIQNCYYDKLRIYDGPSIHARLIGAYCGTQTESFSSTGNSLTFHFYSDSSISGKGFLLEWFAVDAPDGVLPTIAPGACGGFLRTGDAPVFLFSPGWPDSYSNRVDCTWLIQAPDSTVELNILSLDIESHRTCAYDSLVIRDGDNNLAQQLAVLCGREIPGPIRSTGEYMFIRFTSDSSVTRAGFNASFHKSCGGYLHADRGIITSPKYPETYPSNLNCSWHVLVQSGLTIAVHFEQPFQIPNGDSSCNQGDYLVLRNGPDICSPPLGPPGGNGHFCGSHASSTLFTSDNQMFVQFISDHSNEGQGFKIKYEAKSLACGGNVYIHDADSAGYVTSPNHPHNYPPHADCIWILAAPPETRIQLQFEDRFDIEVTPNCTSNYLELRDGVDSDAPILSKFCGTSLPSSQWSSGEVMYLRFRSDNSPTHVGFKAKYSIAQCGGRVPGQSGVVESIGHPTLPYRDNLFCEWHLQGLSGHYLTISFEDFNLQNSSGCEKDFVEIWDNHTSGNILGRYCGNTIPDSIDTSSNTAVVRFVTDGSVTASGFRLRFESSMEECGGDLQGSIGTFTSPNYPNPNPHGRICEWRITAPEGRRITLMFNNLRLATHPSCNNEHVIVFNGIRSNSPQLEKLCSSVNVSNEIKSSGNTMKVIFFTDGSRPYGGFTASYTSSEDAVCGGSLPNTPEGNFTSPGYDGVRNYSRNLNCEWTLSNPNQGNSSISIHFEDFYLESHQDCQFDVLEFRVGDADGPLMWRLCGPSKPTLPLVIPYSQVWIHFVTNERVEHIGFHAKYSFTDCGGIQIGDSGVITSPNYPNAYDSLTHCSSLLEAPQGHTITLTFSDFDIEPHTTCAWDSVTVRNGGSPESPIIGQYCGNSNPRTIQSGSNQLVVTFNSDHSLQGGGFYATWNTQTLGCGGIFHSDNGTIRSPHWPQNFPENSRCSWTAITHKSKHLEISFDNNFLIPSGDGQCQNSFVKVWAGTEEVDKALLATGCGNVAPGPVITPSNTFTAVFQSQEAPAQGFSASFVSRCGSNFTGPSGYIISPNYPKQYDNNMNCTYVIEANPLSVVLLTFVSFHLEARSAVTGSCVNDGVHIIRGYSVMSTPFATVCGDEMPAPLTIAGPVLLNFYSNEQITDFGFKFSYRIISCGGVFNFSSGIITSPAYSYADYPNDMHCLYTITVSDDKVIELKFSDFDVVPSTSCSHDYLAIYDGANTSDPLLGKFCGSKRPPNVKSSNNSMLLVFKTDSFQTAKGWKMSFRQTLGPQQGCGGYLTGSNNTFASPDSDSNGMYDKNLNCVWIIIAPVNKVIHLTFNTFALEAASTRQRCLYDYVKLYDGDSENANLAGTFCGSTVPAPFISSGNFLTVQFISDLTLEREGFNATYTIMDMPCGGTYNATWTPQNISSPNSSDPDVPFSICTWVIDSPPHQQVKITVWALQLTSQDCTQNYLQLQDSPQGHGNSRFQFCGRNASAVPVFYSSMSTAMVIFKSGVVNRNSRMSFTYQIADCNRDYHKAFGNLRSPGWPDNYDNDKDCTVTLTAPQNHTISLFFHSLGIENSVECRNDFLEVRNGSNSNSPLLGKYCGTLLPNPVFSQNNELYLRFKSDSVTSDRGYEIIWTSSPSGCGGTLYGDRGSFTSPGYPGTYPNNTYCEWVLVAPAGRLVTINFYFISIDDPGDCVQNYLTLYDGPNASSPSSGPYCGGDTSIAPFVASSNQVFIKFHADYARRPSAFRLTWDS

albumin (from UniProt P02768)
pKd: 12.22
